In patent publication US20210198366A1:

T1: cynomolgus monkey B7-H7 (soluble analyte in SPR) (cynomolgus monkey)
T1 sequence: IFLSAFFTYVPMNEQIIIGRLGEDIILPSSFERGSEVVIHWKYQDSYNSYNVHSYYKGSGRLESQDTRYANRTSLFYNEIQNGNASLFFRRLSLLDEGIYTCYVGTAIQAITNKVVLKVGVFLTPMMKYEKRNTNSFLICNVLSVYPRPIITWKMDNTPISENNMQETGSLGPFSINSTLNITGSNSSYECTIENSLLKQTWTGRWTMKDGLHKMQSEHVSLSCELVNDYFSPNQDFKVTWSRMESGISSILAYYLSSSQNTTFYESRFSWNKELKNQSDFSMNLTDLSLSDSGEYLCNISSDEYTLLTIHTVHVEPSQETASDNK


Assays:
[1] = biological target: T1, cynomolgus monkey B7-H7 (soluble analyte in SPR) (cynomolgus monkey); assay: SPR (Biacore)
[2] = biological target: T1, cynomolgus monkey B7-H7 (soluble analyte in SPR) (cynomolgus monkey); assay: SPR (Biacore), antibody captured by anti-Fc on CM5 chip, B7-H7 injected, 37 C

Binder | Kd [1] [nM] | koff [1] [s⁻¹] | Kd [2] [nM]
humanized anti-B7-H7 antibody Hz2D7 (antibody, human IgG1, kappa, V domains shown) VH: QVQLVQSGAEVKKPGASVKVSCKTSGYTFTEYTMHWVRQAPGQGLEWMGGINPNNYGAPYNQKFKGRVTMTVDTSISTAYMELSRLRSDDTAVYYCASGGYYFDYWGQGTLVTVSS VL: DIQMTQSPSSLSASVGDRVTITCKASQDVGTAVAWYQQKPGKAPKLLIYWAFTRHTGVPSRFSGSGSGTDYTLTISSLQPEDFATYYCQQHYDTPFTFGQGTKVEIKR | 0.4 | 7.6e-05 | –
anti-B7-H7 antibody 3H6 (antibody, V domains shown) VH: EVQLQQSGPELVKPGASVKISCKTSGYTFTEYTMHWVKQSHGKSLEWIGGINPNNGGAPYNQKFKGKATLTVDKSSSTAYMELRSLTSEDSAVYYCARGGYYFDYWGQGTTLTVSS VL: DIVMTQSHKFMSTSVGDRVSITCKASQDVSTAVAWYQQKSGQSPKLLIYWASTRHTGVPDRFTGSGSGTDYTLTISSVQAEDLALYYCQQHYDTPFTFGGGTKLEIK | – | – | 6.9
chimeric 2D7 antibody comprising the murine heavy chain and light chain variable regions of 2D7 and a human Fc region (antibody, V domains shown) VH: EVQLQQSGPELVKPGASVKISCKTSGYTFTEYTMHWVKQSHGKSLEWIGGINPNNYGAPYNQKFKGKATLTVDKSSNTAYMELRSLTSEDSAIYYCASGGYYFDYWGQGTTLTVSS VL: DIVMTQSHKFMSTSFGDRVSITCKASQDVGTAVAWYQQKLGQSPKLLISWAFTRHTGVPDRFTGSGSGTDYTLTISSLQAEDLALYYCQQHYDTPFTFGSGTKLEIK | 0.14 | 3.5e-05 | –
anti-B7-H7 antibody 16D5 (antibody, V domains shown) VH: QVQLQQSAAELARPGASVKMSCKASGYTFTTYTMHWVKQRPGQGLEWIGYINPSRGYSDYSQKFQGKSTLTTDKSSNTAYIQLTSLTSEDSAVYFCARGGYDFDYWGQGTTLTVSS VL: DIVMTQSHKFMSTSVGDRVSITCKASQDVGTAVAWYQQKPGQSPKLLLYWASTRHTGVPDRFTGSGSGTDYTLTISSVQAEDLALYHCQQHFITPYTFGGGTKLEIK | – | – | 6.9
anti-B7-H7 antibody 2F10 (antibody, V domains shown) VH: EIQLQQTGPELVKPGASLRISCKASGYSFTDYIIVWVKQNQGKNLDWIEKINPYYGTTTYNLRFEDKATLTVNKSSTTAYMQLNSLTSEDSAVYYCARWDYVSTLFAMDYWGQGTSITVSS VL: DIVMTQSHKVMSTSVGDRVSIICKASQDVGTAVAWYQQKPGQSPKLLIYWASTRHTGVPDRFTGSGSGTDFILTITNVQSENLANYFCQQYKRYYTFGGGTKLEIK | – | – | 8.6
anti-B7-H7 antibody 5C9 (antibody, V domains shown) VH: QVQLQQSGAELAKPGASVKMSCKASGYTFTSFWIHWIKQRPGQGLEWIGYIIPNTDYTEYNQKFKDKATFTADKSSSTAYMQLSSLTSEDSAVFYCARGLRGAYYFDYWGQGTTLTVSS VL: DIVLTQSPASLAVSLGLRATISCRSSQSVSTSTNGYMHWYQQKPGQPPKLLIMYASNLESGVPARFSGSGSGTDFTLNIHPVDEEDTATYYCQHSWVLPYTFGGGTKLEIK | – | – | 4.8

Further binders by falling Kd [2], results first:

Kd [1] [nM] | koff [1] [s⁻¹] | Kd [2] [nM] | Binder
– | – | 4.6 | anti-B7-H7 antibody 5B10 (antibody, V domains shown) VH: EVQLQQSGPELEKPGASVKISCKASGYSFTGYNMNWVKQSNGKSLEWIGNIDPYSGGSTYNQKFKGKATLTVDKSSSTASLQLKSLTSEDSSVYYCARSFYDAPYLTYWGQGTLVTVSA VL: DIQMTQSPTSLSASVGETVTITCRASENIFIYLAWYQQKQGKSPQLLVFNAKTLAEGVPSRFSGSGSGTQFSLKINSLRPEDFGTYYCQHHYGTPPTFGGGTKLEV
– | – | 4.5 | anti-B7-H7 antibody 28F5 (antibody, V domains shown) VH: QVQLKESGPGLVAPSQSLSITCTVSGFSLTGYGVNWVRQPPGKGLEWLGVIWGDGSTDYNSVLKSRLSISKDNSKSQVFLKMNSLQTDDTARYYCAREATEYLYWYFDVWGAGTTVTVSS VL: DIVLTQSPASLAVSLGQRATISCRASESVEYYGSSLMQWYQQKPGQPPKLLIFAASNVESGVPPRFSGSGSGTDFNLNIHPVDEDDIAMYFCQQGRRVPWTFGGGTKLEIK
– | – | 3.2 | anti-B7-H7 antibody 1D3 (antibody, V domains shown) VH: EVQLQQSGPELEKPGASVKISCKASGYSFTGYNMNWVKESNGRSLEWIGNIDPYSGGSTYNQKFKGKATMTVDKSSSTAYMQLKSLTSEDSAVYYCARSVYDAPWLAHWGQGTLVTVSA VL: DIQMTQSPASLSASVGETVTITCRASENIYIYLAWYQQKQGKSPQLLVYNAKTLAEGVPSRFSGSGSGTQFSLKINRLQPEDFGNYYCQHHYGTPPTFGGGTKLEIK
– | – | 1.2 | anti-B7-H7 antibody 5F7 (antibody, V domains shown) VH: QEQLQQPGTELVKPGASVKISCKASGYTFSSYSMHWVKLTPGQGLEWMGTIYPGNENTSYNQKFKGKATLTADKSSSTAYMQLSSLTSEDSAVYYCARGGYYFDYWGQGTTLTVSS VL: DIVMTQSHKFLSTSVGDRVSITCKASQDVSTAVAWYQQKPGQSPKLLIYWASTRHTGVSDRFTGSGSGTDFTLTISSVQAEDLALYYCQQHFDIPYWFGGGTKLEIK
0.65 | 0.00011 | 0.6 | anti-B7-H7 antibody 2D7 (antibody, V domains shown) VH: EVQLQQSGPELVKPGASVKISCKTSGYTFTEYTMHWVKQSHGKSLEWIGGINPNNYGAPYNQKFKGKATLTVDKSSNTAYMELRSLTSEDSAIYYCASGGYYFDYWGQGTTLTVSS VL: DIVMTQSHKFMSTSFGDRVSITCKASQDVGTAVAWYQQKLGQSPKLLISWAFTRHTGVPDRFTGSGSGTDYTLTISSLQAEDLALYYCQQHYDTPFTFGSGTKLEIK
